Reference: publication PMC11686378

How the values were obtained:
[1] = target: DNA primase PriSL (PriS-PriL heterodimer) from P. abyssi, in solution (Pyrococcus abyssi) (UniProt Q9V292)
[2] = target: DNA primase PriSL (PriS-PriL heterodimer) from P. abyssi, in solution (Pyrococcus abyssi) (UniProt Q9V292); remark: listed apart in the source
[3] = target: Replication Protein A (RPA) heterotrimer from Pyrococcus abyssi, wild type (Pyrococcus abyssi); test: BLI; RPA or RPA^ΔWH nucleoprotein filaments on a 3'-TEG-biotin 50-nt ssDNA held on streptavidin sensors; PriSL (1.56-100 nM) or PolD (15.62-1000 nM) in solution; steady-state analysis; 25 °C, buffer E with 0.2 mg/ml BSA

Chain of DNA primase PriSL (PriS-PriL heterodimer) from P. abyssi, in solution (Pyrococcus abyssi) (Q9V292 whole entry, chain 1 of 2): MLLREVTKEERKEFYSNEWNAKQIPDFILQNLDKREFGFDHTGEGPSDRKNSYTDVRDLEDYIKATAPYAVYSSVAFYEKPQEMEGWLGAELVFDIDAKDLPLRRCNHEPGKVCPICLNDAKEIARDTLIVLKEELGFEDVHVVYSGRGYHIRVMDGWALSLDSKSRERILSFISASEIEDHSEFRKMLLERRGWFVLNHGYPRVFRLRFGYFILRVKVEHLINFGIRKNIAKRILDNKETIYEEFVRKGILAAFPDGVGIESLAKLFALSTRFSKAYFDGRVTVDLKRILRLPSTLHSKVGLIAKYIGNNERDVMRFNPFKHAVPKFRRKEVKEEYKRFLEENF
Chain of DNA primase PriSL (PriS-PriL heterodimer) from P. abyssi, in solution (Pyrococcus abyssi) (Q9V291 whole entry, chain 2 of 2, further chain): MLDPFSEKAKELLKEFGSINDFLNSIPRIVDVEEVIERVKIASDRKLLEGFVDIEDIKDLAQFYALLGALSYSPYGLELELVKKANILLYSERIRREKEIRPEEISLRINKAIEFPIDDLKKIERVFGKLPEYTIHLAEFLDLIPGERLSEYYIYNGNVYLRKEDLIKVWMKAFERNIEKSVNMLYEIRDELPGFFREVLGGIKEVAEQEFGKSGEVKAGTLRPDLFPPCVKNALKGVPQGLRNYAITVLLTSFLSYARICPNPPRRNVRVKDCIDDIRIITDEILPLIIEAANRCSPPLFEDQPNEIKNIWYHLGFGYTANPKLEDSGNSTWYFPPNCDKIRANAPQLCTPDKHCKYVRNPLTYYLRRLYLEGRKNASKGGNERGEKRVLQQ

**Q.** “RPA^ala-linker, RPA with all 12 glutamic acid residues of the Rpa2 linker substituted with alanine (complex)” was tested. Which PriSL primer extension, reduction in long extension products against wild-type RPA, over the RPA concentrations tested [1] did it give?
**A.** 45%

**Q.** How did the PriSL primer extension, long products (≥70 nt), with RPA from 0.05 to 0.8 µM [2] turn out when “Replication Protein A (RPA) heterotrimer from Pyrococcus abyssi, wild type (complex)” was run?
**A.** 5 fold

**Q.** With “Replicative DNA polymerase PolD (DP1-DP2 heterodimer) from P. abyssi, in solution (complex)” as the substance, how does the Kd [3] read?
**A.** 136 nM
